These results are taken from the nanobody polyreactivity screen of Harvey et al. (2022).

This series can be described thus: yeast display, Sf9 membrane polyspecificity reagent, FACS + sequencing; frameworks hold sequencing errors. The procedure, abridged: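 A synthetic nanobody library was expressed on Saccharomyces cerevisiae BJ5465 by galactose induction for 36–48 hours. The library was stained for 1 hour at 4 °C with 10% biotinylated, detergent-solubilized Sf9 membrane reagent and enriched with streptavidin microbeads before FACS. Low and high (top ~1%) gates were set on anti-HA fluorescence for expression and streptavidin fluorescence for reagent binding, and each polyreactivity label reflects the gate of origin.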
Consider “QVQLVESGGGLVHAGCSLRLSCAASGFTFKYYAMGWYRQPPGKEREIVAAISYSGGRTYYADSVKGRFTISRDNAKNTVYLQMNSLKPEDTAVYYCATDDVWKDGYWGQGTQVTVSS”, for which the “polyreactivity (PSR sort gate)” value is given as “low polyreactivity”.

As for “QVQLVESGGGLVHAGGRLRLSCAASGRIFWINAMGWSRQAPGKDRELVATISSGSTSYADSVKGRFTISRDNAKNTVYLQMNRLKPEATAVYYCAVTLRYTRSGAYDYWGQGTQVTVSS”, the “polyreactivity (PSR sort gate)” value is on record as “low polyreactivity”. As for “QVQLVESGGGLVHAGGRLRLSFAASGSIFAVYAMGWYRQAPGKEREFVARIAWGGGRTYYADSVKGRFTISRDNAQNTVYLQMNSLKPEDTAVYYCNAERAGTYRYDYWGQGPQVTVSS”, the “polyreactivity (PSR sort gate)” value is reported as “high polyreactivity”. “QVQLVESGGGLVHAGGSIRLSCAASGRIFPAYAMGWYRQAPGKERELVASIRRGGITYADSVKGRFTISRDNAKNTVYLQMNSLKPEDTAVYYCNADYRGWVYHMDYWGQGTQVTVSS”: the “polyreactivity (PSR sort gate)” value is reported as “low polyreactivity”.

“QVQLVESGGGLVHAGGSLPLSCAASGLTFGSNPMRTYRQAPVQERELVAAISGGTSTNYADSVKGRFTISRDNAKNTVYLQMNSMTPEDTAVYYCAAAKRTADYASYWYVENDYWGQGSQVTVSS”: the “polyreactivity (PSR sort gate)” value is listed as “low polyreactivity”. As for “QVQLVESGGGLVHAGGSLRISCAASGSTFEWNAMGWYRQAPGKEREFVAAISKTGDGTYADSVKGRFTISRDNAKNSVYLQMNSLKPEDTAVYYCAAVDGFWVNYWYRIGYDYWGQGTQVTVSS”, the “polyreactivity (PSR sort gate)” value is “low polyreactivity”. For “QVQLVESGGGLVHAGGSLRLSCAACGRIFTYYAMGWYRQAPGKERELVAAITWSGGSTYYADSVKGRFTISRDNAKNTVYLQMNSLKPEDTAVYYCNAVVLHVTTDNSTFTTDDYWGQGTQVTVSS” the value was “low polyreactivity”.

For “QVQLVESGGGLVHAGGSLRLSCAASGFIFAANAKGWYRQAPGKERELVAAINYRGSSTYYADSVKGRFTISRDNAKNTVYLQMNSLKPYDTAVYYCAAVSSIYSGYGYWGQGTQVTVSS”, the “polyreactivity (PSR sort gate)” value is “high polyreactivity”. As for “QVQLVESGGGLVHAGGSLRLSCAASGFIFDRYVMGWYRQAPGKERDLVAAINRSGGSTYYADSVKGRFTISRDNAKNTVYLQMNSLKPEDTAVYYCAADRAGSFTTMDYWGHGTQVTVSS”, the “polyreactivity (PSR sort gate)” value is reported as “high polyreactivity”. Take “QVQLVESGGGLVHAGGSLRLSCAASGFIFDTYAMGWYRQAPGKERELVAAISRSGVRTYYADSVKGRFTISRDNAKNTVYLQMNILKPEDTAVYYCNAALNRYHFGRAFPGVYWGHGTQVTVSS”: the “polyreactivity (PSR sort gate)” value was “high polyreactivity”. Regarding “QVQLVESGGGLVHAGGSLRLSCAASGFIFGINAMGWYRQAPGKERELVATITSGGGTNYADSVKGRFTISRDNAKNTVYLQMKSVKPEDTAVYYCADEDDYIYFYLSMDYWGQCTQVTVSS”, the “polyreactivity (PSR sort gate)” value is “low polyreactivity”. As to “QVQLVESGGGLVHAGGSLRLSCAASGFIYDAYANGWYRQSPGKERELVAAIDSGGSTDYADSVKGRFTISRDNAKNTVYLQMNSLKPEDTAVYYCNAERAYLWWYNFDYWGQGTQVTVSS”, the “polyreactivity (PSR sort gate)” value is “low polyreactivity”. The same measure for “QVQLVESGGGLVHAGGSLRLSCAASGFTFGSNAMGWYRQAPGKERELVAAISSRGGRTYYADSVKGRFTISRDNAKNTVYLQMNRLKPDDTAVYYCNADATVAWREQEYEYWGQGTQVSVSS”: “high polyreactivity”. In the case of “QVQLVESGGGLVHAGGSLRLSCAASGITFEVYGMGWYRQSPGKERELVAAINSDGNTNYADSVKGRFTISRDNAKNTVYLEMNSVKPEDTAVYYCATVVNAQISRGESAVTGYYYWGQGTQVTVSS”, the “polyreactivity (PSR sort gate)” value is given as “high polyreactivity”. For the sequence “QVQLVESGGGLVHAGGSLRLSCAASGITSPYSMGWYRQSPGKERELVAAISSGASTYYADTVKGRFTISRDNAKNTVYLQMNSLKPEVTAVYYCNRVTKRYPNIGNYWGQGTQVTLSS”, the “polyreactivity (PSR sort gate)” value is “high polyreactivity”.

As for “QVQLVESGGGLVHAGGSLRLSCAASGLIFPRYDMGWYRQAPGKELELVAAITSGGGTYYADSVKGRITISRDNAKNTVYLQMNSLIPEDTAVYYCARDHYRHSRFFYRYVYWGQGTQVSVSS”, the “polyreactivity (PSR sort gate)” value is reported as “low polyreactivity”.

As to “QVQLVESGGGLVHAGGSLRLSCAASGLTFYGYTMGCYRQAPGKERQLVADISISGGSTRYADSVKGRFTISRDNAKNTVYLQMISLKPEDTAVYYCARDDIYYSNIYDYWGQGTQVTVSS”, the “polyreactivity (PSR sort gate)” value is recorded as “low polyreactivity”.

On to “QVQLVESGGGLVHAGGSLRLSCAASGMTFTKNVMGWYRQSPGKERELVAVISRSGGSTYYADSVKGRFTISRDNAKNTVYLQMNSLKPEDTAVYYCNVKGPGPSRGNYWGQGTQVTVSS”, for which the “polyreactivity (PSR sort gate)” value is listed as “low polyreactivity”. For the sequence “QVQLVESGGGLVHAGGSLRLSCAASGRIFGVYAMGWYRQAPGKERELVAAISEGGGSTNYADSVKGRFTISRDNAKNTVYLQMNSLKPEDTAVYYCAATYRTGVRRYYSWGQGTQVTVSS”, the “polyreactivity (PSR sort gate)” value is listed as “low polyreactivity”. The same measure for “QVQLVESGGGLVHAGGSLRLSCAASGRTFGTYAKGWYRQAPGKERELVAAISSRGGSTYYADSVKGRFTISRDNAKNTVYLQMNSLKPEDTAVYYCAQRVKDGSGYWGQGTQVTVSS”: “high polyreactivity”. Turning to “QVQLVESGGGLVHAGGSLRLSCAASGRTFNRYAMGWYRQAPGKERELVAAISGGGSSTSYADSVKGRFTISRDNAKNTVYLQMNSLKPEDTAVYYCAAKYGGLRYYNMYYWGQGTQVTVSS”, the “polyreactivity (PSR sort gate)” value is “low polyreactivity”.

As for “QVQLVESGGGLVHAGGSLRLSCAASGRTFNWNAMGWYRQEPGKEREFVASINGGGSSYYADSVKGRFTISRDNAKNTVYLQMNSLKPDDTAVYYCAAPWVGTFVSGRCYYWGQGTHVTVSS”, the “polyreactivity (PSR sort gate)” value is on record as “low polyreactivity”.

In the case of “QVQLVESGGGLVHAGGSLRLSCAASGRTFRWYALGWYRQAPGKERELVAAISSSGTRTYYADSVKGRFTISRDNAKNTVYLQMNSLKPEDTAVYYCAATWRVGYDYWGQGTQVTVSS”, the “polyreactivity (PSR sort gate)” value was “high polyreactivity”. As for “QVQLVESGGGLVHAGGSLRLSCAASGRTLKYYAMGWYRQAPGKERELVAAISGGDSTYYADSVKGRFTISRDNAKNTVYLQMNSLKPEDTAVYYCNARRFIWWYPYLRDYWGQGTQVTVSS”, the “polyreactivity (PSR sort gate)” value was “high polyreactivity”. For “QVQLVESGGGLVHAGGSLRLSCAASGSIFDDYAMGWYRQAPGKERELVAAITSGGSTYYADSVKGRFTISRDNAKNTVYLQMNSLKTEDTAVYYRATRYHWSSCFAPVGAYGYWGLGTQVTVSS” the value was “low polyreactivity”; for “QVQLVESGGGLVHAGGSLRLSCAASGSIFEGNGMGWYRQAPGKERELVAAITFRSGSTYNADSVKGRFTISRDNEKNTVYLPMNSLKPEDTAVYYCAADEYYQVSAYDYWGQGTQVTVSS”, “low polyreactivity”; for “QVQLVESGGGLVHAGGSLRLSCAASGSIFGWYAMGWYRQAPGKERELVASISWSGGGTYYADSVKGRFTISRDNAKNTVYLQMKSLKPEDTAVYYCAAVYIWRYGIRGGYYWGQGTQVSVSS”, “high polyreactivity”.

In the case of “QVQLVESGGGLVHAGGSLRLSCAASGSIFNVYAMGWYRQAPGKERELVAAITQSGGSTYYADSVKGRFTISRDNAKNTVYLQMNSLKPEDTAVSYCAADNRYTYYYWGQCTQVTVSS”, the “polyreactivity (PSR sort gate)” value is “low polyreactivity”.

For “QVQLVESGGGLVHAGGSLRLSCAASGSIFRGYAMGWYRQAPGKERELVAAISRDGGSTYYADSVKGRFSISRDNAKNTVYLQMNSLKPEETAVYYCAADYVAYATYGDGDYWGQGTQVTVSS”, the “polyreactivity (PSR sort gate)” value is “high polyreactivity”. The same measure for “QVQLVESGGGLVHAGGSLRLSCAASGSIFRPYAMGWYRQAPGKERELVAAISRRGGSTYYADSVKGRFTISRDNAKNTVYLQLISLKPEDTAVYYCAADHSGPSPYGYGYWGQGTQVTVSS”: “high polyreactivity”; for “QVQLVESGGGLVHAGGSLRLSCAASGSIFVRNDMGWYRPAPGKERELVAVITRSAGGTYYADSVKGRFTISRDTAKNSVYFQMNSLKPEDTAFYYCAASPSTPNKYGSWGHGTQVTVSS”: “high polyreactivity”; for “QVQLVESGGGLVHAGGSLRLSCAASGSIITYYAMGWSRQAPGKERELVAVISASGGRTYYADSVKVRFTISLDNAMYSVYLQMNSLKPEDTAVYYCAAYRSIYSFKFGYWGQGSQVTVSS”: “high polyreactivity”.

Turning to “QVQLVESGGGLVHAGGSLRLSCAASGSILARYARGWYRQEPGKERELVAAISSRGGSTYYADSVKGRFTISRDYAKNTVYLQMNSLKPEDTAVYYCAASVYLQVEYDYWGQGTQVTVSS”, the “polyreactivity (PSR sort gate)” value is listed as “low polyreactivity”. On to “QVQLVESGGGLVHAGGSLRLSCAASGSTFDRNAMGWARQAPGKDMELVDAISRSGGSTNYADSVKGRFTISRDNAKNTVYLQMNSLKPEDTAVYYCAAVRPLWYGQGWALYWFEYWGQGTQVTVSS”, for which the “polyreactivity (PSR sort gate)” value is “low polyreactivity”. Consider “QVQLVESGGGLVHAGGSLRLSCAASGSTFIRNAMGWYRQAPGKERELVAAISSSGGRTYYADSVKGRFTISRDNAKNTVYLQMNSLKPEDTAVYYCAARYVPPWGRRYYYWGQGTQVTVSS”, for which the “polyreactivity (PSR sort gate)” value was “high polyreactivity”.

With “QVQLVESGGGLVHAGGSLRLSCAASGSTFNRYAMGWYRQAHGKERELVASISWGGGRTYYADSVKGRFTISRDNEKNTVYLLMNSLKPEDTAVYYCATDRYYRHYEVDYWGQGTQVTVSS”, the “polyreactivity (PSR sort gate)” value was “low polyreactivity”.

In the case of “QVQLVESGGGLVHAGGSLRLSCAASGSTFPRNDMGWYRQAPGKERELVAAISRGGSTNYADSVKGRFTISRDNAKNTVYLQMNSLKPEDTAVYYCAAQIFESAYGMDYWGQGTQVTVSS”, the “polyreactivity (PSR sort gate)” value is recorded as “low polyreactivity”. Turning to “QVQLVESGGGLVHAGGSLRLSCAASGSTFWANAMGWYRPPPGKERELVAAITSTGITYYADSVKGRFTISRDNAKNTVYLQMNSLKPEDTAVYYCAADGFRYSVYLIRNPMDYWGQGTQVTVSS”, the “polyreactivity (PSR sort gate)” value was “low polyreactivity”. As for “QVQLVESGGGLVHAGGSLRLSCAASGSTSGIYAMGWYRQAPGKERELVAAIDTSGGSTYADSLKGRFTISRDNAKYTVYLQMNSLKPEDTAGYYCAKPFSSNSWSHGYWGQGTQVTVSS”, the “polyreactivity (PSR sort gate)” value is “low polyreactivity”. For “QVQLVESGGGLVHAGGSLRLSCAASGYSSSQNAMVWYRQEPGKERELLARITTDGTSTYYADSVKGRFTISRDNAKNTVYLHMNSLKPEDTAVYYCNARYPAYVVRSWYPYAYYYWGQGTQVTVSS”, the “polyreactivity (PSR sort gate)” value is “low polyreactivity”. Consider “QVQLVESGGGLVHAGGSLRLSCAAWSIFYLNAMGWYRQAPGKERELVAAISSAGSTYYADSVKGRFTISRDNAKNTVYLQMNSLKPEDTAVYYCAAYWYDSPGVTEIWYDYWGQGTQVTVSS”, for which the “polyreactivity (PSR sort gate)” value is “low polyreactivity”.
